Data reported in patent publication US20260008815A1, “CYCLIC PEPTIDE OR SALT THEREOF, AND USES THEREOF” (FUJIFILM Corporation, priority 2023, published 2026).
Bridge positions count the residues as written; N and C are the ends. Ends that are not written are not given here. COCH2 = acetyl group that carries the bridge

Target: T1, Recombinant Human FGFR2 alpha (IIIc) Fc Chimera Protein (Homo sapiens, UniProt P21802)
T1 construct: Fc (chimera); purchased R&D systems 712-FR-050
Experiment: ELISA binding affinity of enzymatically synthesized peptide to FGFR
Settings: ELISA luminescence signal at 10 nmol/L peptide, SEQ ID NO: 47 at 10 nmol/L standardized to 1; enzyme synthesis product
Experimental: The binding affinity of the peptide to FGFR was evaluated using an ELISA method.
The binding affinity of the enzymatically synthesized peptide to FGFR was measured by evaluating the amount of the peptide bound to FGFR by ELISA.
First, 5 ng of Recombinant Human FGFR2 alpha (IIIc) Fc Chimera Protein (R&D systems, 712-FR-050) was immobilized in each well of a 96-well plate, and blocked with Pierce Protein-Free (PBS) Blocking Buffer (Thermo, 37572), and a peptide diluted with Can Get Signal Immunoreaction Enhancer Solution I (TOYOBO, NKB-101) was then added and reacted at room temperature for 3 hours. After washing with 0.05% Tween 20-containing phosphate buffered saline (PBS), an anti-Myc antibody (Cell Signaling, 14038S) diluted with Can Get Signal Immunoreaction Enhancer Solution II (TOYOBO, NKB-101) was added and reacted at room temperature for 2 hours. After washing with 0.05% Tween 20-containing PBS, SuperSignal ELISA Femto Substrate (Thermo, 37075) was added, and the luminescence amount was measured. The dose-response relationship was calculated from using the difference between the luminescence amount in the well in which FGFR was immobilized and the luminescence amount in the well in which FGFR was not immobilized, and the concentration of the peptide at the time of reaction, and the binding affinity to FGFR was evaluated according to the following evaluation criteria. The evaluation result preferably satisfies the evaluation criteria A, B, or C.
In a case where a value of a luminescence signal emitted by the cyclic peptide set forth in SEQ ID NO: 47 at a reaction concentration of 10 nmol/L is standardized to 1, evaluation criteria of the luminescence signal value emitted by the cyclic peptide at a reaction concentration of 10 nmol/L is as follows. • A: 0.7 or more • B: 0.5 or more and less than 0.7 • C: 0.1 or more and less than 0.5 • D: less than 0.1.

T1 sequence (P21802 with tags, fused parts or gaps limits assumed): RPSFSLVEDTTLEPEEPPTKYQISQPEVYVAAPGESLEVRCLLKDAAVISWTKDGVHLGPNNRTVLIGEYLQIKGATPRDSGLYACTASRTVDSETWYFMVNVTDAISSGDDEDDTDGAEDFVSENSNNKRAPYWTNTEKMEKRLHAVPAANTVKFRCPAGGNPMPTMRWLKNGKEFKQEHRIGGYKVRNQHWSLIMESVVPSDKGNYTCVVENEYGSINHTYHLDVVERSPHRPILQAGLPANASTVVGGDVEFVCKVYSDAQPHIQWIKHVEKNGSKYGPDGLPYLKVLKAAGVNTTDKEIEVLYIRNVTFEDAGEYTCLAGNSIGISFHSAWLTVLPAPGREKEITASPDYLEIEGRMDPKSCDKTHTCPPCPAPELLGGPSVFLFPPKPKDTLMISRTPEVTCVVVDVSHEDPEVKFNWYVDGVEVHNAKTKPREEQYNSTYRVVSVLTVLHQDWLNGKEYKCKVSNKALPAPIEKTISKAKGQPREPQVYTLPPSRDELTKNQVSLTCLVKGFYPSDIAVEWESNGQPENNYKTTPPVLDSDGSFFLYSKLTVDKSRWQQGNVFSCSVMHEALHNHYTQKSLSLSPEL

Row | Substance | Evaluation result of binding affinity to FGFR
1 | 86 (HCPQNFINPVQWRYFQHYK(COCH2)N; thioether 2-19 (inferred)) [compound 86] | A (0.7 or more)
2 | 87 (QCPQNFINPVHWRYFQHYK(COCH2)N; thioether 2-19 (inferred)) [compound 87] | A (0.7 or more)
3 | 88 (QCPQNFINPVQWRYLQHYK(COCH2)N; thioether 2-19 (inferred)) [compound 88] | A (0.7 or more)
4 | 89 (QCPQNFINPVQWRYYQHYK(COCH2)N; thioether 2-19 (inferred)) [compound 89] | B (0.5 or more and less than 0.7)
5 | 90 (QCPQNFINPVQWRYRQHYK(COCH2)N; thioether 2-19 (inferred)) [compound 90] | C (0.1 or more and less than 0.5)
6 | 91 (QCPQNFINPVQWRYFQHVK(COCH2)N; thioether 2-19 (inferred)) [compound 91] | C (0.1 or more and less than 0.5)
7 | 92 (QCPQNFINPVQWRYFQHFK(COCH2)N; thioether 2-19 (inferred)) [compound 92] | A (0.7 or more)
8 | 93 (QCPQNFINPVQWRYFQHWK(COCH2)N; thioether 2-19 (inferred)) [compound 93] | A (0.7 or more)
9 | 94 (QCPQNFINPVQWRYFQHSK(COCH2)N; thioether 2-19 (inferred)) [compound 94] | C (0.1 or more and less than 0.5)
10 | 95 (QCPQGFINPVQWRYFQHYK(COCH2)N; thioether 2-19) [compound 95] | C (0.1 or more and less than 0.5)
11 | 96 (QCPQYFINPVQWRYFQHYK(COCH2)N; thioether 2-19) [compound 96] | C (0.1 or more and less than 0.5)
12 | 97 (QCPQSFINPVQWRYFQHYK(COCH2)N; thioether 2-19) [compound 97] | C (0.1 or more and less than 0.5)
13 | 98 (QCPQTFINPVQWRYFQHYK(COCH2)N; thioether 2-19) [compound 98] | C (0.1 or more and less than 0.5)
14 | 99 (QCPQEFINPVQWRYFQHYK(COCH2)N; thioether 2-19) [compound 99] | C (0.1 or more and less than 0.5)
15 | 100 (QCPQHFINPVQWRYFQHYK(COCH2)N; thioether 2-19 (inferred)) [compound 100] | C (0.1 or more and less than 0.5)
16 | 101 (QCPQNFINPVQIRYFQHYK(COCH2)N; thioether 2-19 (inferred)) [compound 101] | C (0.1 or more and less than 0.5)
17 | 102 (QCPQNFINPVQVRYFQHYK(COCH2)N; thioether 2-19 (inferred)) [compound 102] | C (0.1 or more and less than 0.5)
18 | 103 (QCPQNFINPVQFRYFQHYK(COCH2)N; thioether 2-19 (inferred)) [compound 103] | B (0.5 or more and less than 0.7)
19 | 104 (QCPQNFINPVQYRYFQHYK(COCH2)N; thioether 2-19 (inferred)) [compound 104] | B (0.5 or more and less than 0.7)
20 | 105 (QCPQNFINPVQSRYFQHYK(COCH2)N; thioether 2-19 (inferred)) [compound 105] | C (0.1 or more and less than 0.5)
21 | 106 (QCPQNFINPVQHRYFQHYK(COCH2)N; thioether 2-19 (inferred)) [compound 106] | A (0.7 or more)

The next lines start with the values.

Row | Evaluation result of binding affinity to FGFR | Substance
22 | B (0.5 or more and less than 0.7) | 107 (YCTDNYIDDIQFWYLFLYK(COCH2)Q; thioether 2-19 (inferred)) [compound 107]
23 | A (0.7 or more) | 108 (LCRNYINPQQWRYFALYK(COCH2)Y; thioether 2-18 (inferred)) [compound 108]
24 | B (0.5 or more and less than 0.7) | 109 (DCFINELQYFYIQQYK(COCH2)K; thioether 2-16 (inferred)) [compound 109]
25 | C (0.1 or more and less than 0.5) | 110 (QCQTDHQQQLYFIYQYLQK(COCH2)I; thioether 2-19 (inferred)) [compound 110]
26 | C (0.1 or more and less than 0.5) | 111 (QCDQEFYLALYAWTLRSYK(COCH2)L; thioether 2-19 (inferred)) [compound 111]
27 | C (0.1 or more and less than 0.5) | 112 (HCQPEYELYYIYLYLNALK(COCH2)I; thioether 2-19 (inferred)) [compound 112]
28 | C (0.1 or more and less than 0.5) | 113 (RCINYWSGQQFYFFQQYK(COCH2)F; thioether 2-18 (inferred)) [compound 113]
29 | A (0.7 or more) | 114 (YCTDNYIDDIQFWYLFLYK(COCH2)H; thioether 2-19 (inferred)) [compound 114]
30 | A (0.7 or more) | 115 (NCPNYWSQIQWHYFQAYK(COCH2)Q; thioether 2-18 (inferred)) [compound 115]
31 | C (0.1 or more and less than 0.5) | 116 (QCYQNWYLYQYLVERYYK(COCH2)D; thioether 2-18 (inferred)) [compound 116]
32 | A (0.7 or more) | 117 (LCRNYINPQQWRYFALYK(COCH2)N; thioether 2-18 (inferred)) [compound 117]
33 | C (0.1 or more and less than 0.5) | 118 (LCPVPQQTDYLRWYQIIHK(COCH2)Q; thioether 2-19 (inferred)) [compound 118]
34 | A (0.7 or more) | 119 (QCRYFWQYVLERYRVRLPK(COCH2)E; thioether 2-19 (inferred)) [compound 119]
35 | C (0.1 or more and less than 0.5) | 120 (QCWYIQQYIWERYFLWHNK(COCH2)E; thioether 2-19 (inferred)) [compound 120]
36 | A (0.7 or more) | 121 (DCYWDDQQYSFLQLYK(COCH2)R; thioether 2-16 (inferred)) [compound 121]
37 | B (0.5 or more and less than 0.7) | 122 (QCENWVNSTQFEFFWQYK(COCH2)T; thioether 2-18 (inferred)) [compound 122]
38 | A (0.7 or more) | 123 (QCQNFITEVQFTYFWHYK(COCH2)T; thioether 2-18 (inferred)) [compound 123]
39 | C (0.1 or more and less than 0.5) | 124 (DCRDLQLFYIYQYLDALK(COCH2)K; thioether 2-18 (inferred)) [compound 124]
40 | A (0.7 or more) | 125 (YCRDNYFYLEQWQYLYLYK(COCH2)H; thioether 2-19 (inferred)) [compound 125]
41 | A (0.7 or more) | 126 (LCEINWLSQEQYGYFIEYK(COCH2)T; thioether 2-19 (inferred)) [compound 126]
42 | A (0.7 or more) | 127 (YCPYNFYNIIQFHYFLTYK(COCH2)T; thioether 2-19 (inferred)) [compound 127]
43 | A (0.7 or more) | 128 (PCVQNYFNDLQWIFLQHYK(COCH2)R; thioether 2-19 (inferred)) [compound 128]
44 | A (0.7 or more) | 129 (ECPWNFVNQLQWQYFITYK(COCH2)V; thioether 2-19 (inferred)) [compound 129]
45 | A (0.7 or more) | 130 (HCDGNWWNSQQFFYLLLYK(COCH2)H; thioether 2-19 (inferred)) [compound 130]
46 | A (0.7 or more) | 131 (YCEENYLDPEQYQYFIYFK(COCH2)Y; thioether 2-19 (inferred)) [compound 131]
47 | A (0.7 or more) | 132 (ECQENFVDRQQYWYFLSYK(COCH2)F; thioether 2-19 (inferred)) [compound 132]
48 | A (0.7 or more) | 133 (ECLGNYFSHEQYQYLLQYK(COCH2)I; thioether 2-19 (inferred)) [compound 133]
49 | C (0.1 or more and less than 0.5) | 134 (LCADQYDYLLQYVFWRTYK(COCH2)I; thioether 2-19 (inferred)) [compound 134]
50 | C (0.1 or more and less than 0.5) | 135 (QCTYLAQYLVERYHLTK(COCH2)T; thioether 2-17 (inferred)) [compound 135]
51 | A (0.7 or more) | 136 (GCEENYLDPEQYQYFIYFK(COCH2)Y; thioether 2-19 (inferred)) [compound 136]
